This is an account of results in publication PMC6889138.

Experiment [1] deals with ^MsmClpP1 R168A, purified (Mycobacterium smegmatis). Kind of experiment: AUC; oligomeric state of each purified protein alone, in the absence of z-LL (Fig. S4).
Experiment [2] deals with ^MsmClpP1 Y110A (Mycobacterium smegmatis). The experiment in a line: native gel or EMSA; 5 µg of purified protein on 4-16% Native-PAGE Novex Bis-Tris gels, stained with Coomassie Brilliant Blue R250.
Experiment [3] concerns the target ^MsmClpP1, wild type, purified (Mycobacterium smegmatis). Kind of experiment: AUC; oligomeric state of each purified protein alone, in the absence of z-LL (Fig. S4).
Experiment [4] shares this target. Kind of experiment: native gel or EMSA; 5 µg of purified protein on 4-16% Native-PAGE Novex Bis-Tris gels, stained with Coomassie Brilliant Blue R250.
Experiment [5] shares this target. Kind of experiment: crystal structure; ^MsmClpP1 crystallised by vapor diffusion at 20 °C from sodium malonate pH 6.6-6.8; one heptamer in the asymmetric unit, tetradecamer from crystallographically related heptamers; 2.0 Å.
In experiment [6] the target is ^MsmClpP2 R189A, purified (Mycobacterium smegmatis). Kind of experiment: AUC; oligomeric state of each purified protein alone, in the absence of z-LL (Fig. S4).
The target of experiment [7] is ^MsmClpP2, wild type, purified (Mycobacterium smegmatis). The description is as above.

Turning to ^MsmClpP1 R168A, purified (enzyme), in experiment [1], the stoichiometry N came out at 7.
^MsmClpP1 Y110A (enzyme) registered a stoichiometry N in experiment [2] of 14.
For the substance ^MsmClpP1, wild type, purified (enzyme), the results for the stoichiometry N in experiment [3], in experiment [4] and in experiment [5] were 7, 14 and 14, respectively.
In the case of ^MsmClpP2 R189A, purified (enzyme), the stoichiometry N in experiment [6] was 7.
As to ^MsmClpP2, wild type, purified (enzyme), the stoichiometry N in experiment [7] was 7.
